Earlier results on one substance are cited in publication PMC9241073.

One may read the Kd as the constant that tells how readily two partners part at equilibrium.

Like-named read-outs stand apart in the source and are kept apart here.

Data set [1] addresses PAK1 (Homo sapiens) (UniProt Q13153).
Data set [2] has the same target. This is another data set of the same source.

Chain of UniProt Q13153 (Q13153 2-545): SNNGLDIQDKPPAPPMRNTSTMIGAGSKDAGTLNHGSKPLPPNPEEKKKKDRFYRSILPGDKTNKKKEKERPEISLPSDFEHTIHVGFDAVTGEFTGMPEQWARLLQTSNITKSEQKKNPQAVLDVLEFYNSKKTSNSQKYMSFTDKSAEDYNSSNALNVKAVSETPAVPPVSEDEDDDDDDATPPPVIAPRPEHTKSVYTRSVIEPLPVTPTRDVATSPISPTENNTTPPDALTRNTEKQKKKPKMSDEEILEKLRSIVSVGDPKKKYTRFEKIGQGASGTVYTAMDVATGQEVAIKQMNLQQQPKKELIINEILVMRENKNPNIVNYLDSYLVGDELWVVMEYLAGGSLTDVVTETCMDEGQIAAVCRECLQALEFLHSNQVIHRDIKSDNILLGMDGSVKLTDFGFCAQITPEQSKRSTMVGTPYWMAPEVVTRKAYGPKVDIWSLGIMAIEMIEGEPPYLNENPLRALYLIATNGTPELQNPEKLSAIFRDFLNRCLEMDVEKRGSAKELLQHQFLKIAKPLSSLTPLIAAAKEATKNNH

As for CDC42 (from UniProt P60953), the Kd in data set [1] is more than 2000 nM; in data set [2], more than 1000 nM.
